The data set relates to Escherichia coli TOP10. Kind of data set: shrunken log2 fold change of peptide-encoding DNA abundance (4.5 h post-induction vs induction); higher = less antimicrobial activity (less host growth inhibition). Conditions: time post-induction: 4.5 h; library: site-saturation at positions 5, 18, 19, 20.

This note sets out measurements from the supplement of paper PMC9112550, “Optimization of the antimicrobial peptide Bac7 by deep mutational scanning” (BMC Biology, 2022).
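Further: peptides expressed intracellularly from a pBAD plasmid library in pooled LB shake-flask culture, induced with 0.3% L-arabinose, DNA abundance read by NGS, three biological replicates, DESeq2 with apeglm shrinkage.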

Regarding RRIRTRPPRLPRPRPRPYCCPRP, the “shrunken log2 fold change” value was -0.364.

Turning to RRIRARPPRLPRPRPRPMFVPRP, the “shrunken log2 fold change” value was -0.134.

As to RRIRMRPPRLPRPRPRPSCWPRP, the “shrunken log2 fold change” value came out at 0.594.

RRIRGRPPRLPRPRPRPAMCPRP: the “shrunken log2 fold change” value is 0.465.

Consider RRIRARPPRLPRPRPRPREWPRP, for which the “shrunken log2 fold change” value is -0.0253.

In the case of RRIRPRPPRLPRPRPRPRNGPRP, the “shrunken log2 fold change” value was -0.0237.

On to RRIRTRPPRLPRPRPRPPGAPRP, for which the “shrunken log2 fold change” value is 0.995.

As for RRIRERPPRLPRPRPRPIVCPRP, the “shrunken log2 fold change” value is -0.022.

Regarding RRIRKRPPRLPRPRPRPRCPPRP, the “shrunken log2 fold change” value came to 0.52.

RRIRGRPPRLPRPRPRPELQPRP: the “shrunken log2 fold change” value was determined as 2.19.

Turning to RRIRQRPPRLPRPRPRPIYPPRP, the “shrunken log2 fold change” value is -0.121.

With RRIRARPPRLPRPRPRPRKLPRP, the “shrunken log2 fold change” value came out at 0.424.

RRIRPRPPRLPRPRPRPVLDPRP: the “shrunken log2 fold change” value was -0.304.

RRIRKRPPRLPRPRPRPYCDPRP: the “shrunken log2 fold change” value came to 0.00748.

On to RRIRTRPPRLPRPRPRPRTWPRP, for which the “shrunken log2 fold change” value is -0.0887.

On to RRIRCRPPRLPRPRPRPAYEPRP, for which the “shrunken log2 fold change” value is -0.28.

Turning to RRIRKRPPRLPRPRPRPPTRPRP, the “shrunken log2 fold change” value turned out to be 1.49.

As to RRIRGRPPRLPRPRPRPRCRPRP, the “shrunken log2 fold change” value came out at 0.957.

On to RRIRERPPRLPRPRPRPDAQPRP, for which the “shrunken log2 fold change” value came out at 0.154.

For the sequence RRIRNRPPRLPRPRPRPNCLPRP, the “shrunken log2 fold change” value was -0.116.

For RRIRERPPRLPRPRPRPQLWPRP, the “shrunken log2 fold change” value came out at 0.116.

Consider RRIRSRPPRLPRPRPRPKFLPRP, for which the “shrunken log2 fold change” value was -0.0307.

For the sequence RRIRVRPPRLPRPRPRPPKPPRP, the “shrunken log2 fold change” value turned out to be 0.107.

Turning to RRIRYRPPRLPRPRPRPRREPRP, the “shrunken log2 fold change” value was found to be 0.0181.

Consider RRIRKRPPRLPRPRPRPAPIPRP, for which the “shrunken log2 fold change” value was found to be 0.716.

As to RRIRNRPPRLPRPRPRPSMYPRP, the “shrunken log2 fold change” value is -0.309.

Consider RRIRARPPRLPRPRPRPIQYPRP, for which the “shrunken log2 fold change” value was -0.463.

Turning to RRIRDRPPRLPRPRPRPTRVPRP, the “shrunken log2 fold change” value was 0.0497.

Regarding RRIRHRPPRLPRPRPRPFRWPRP, the “shrunken log2 fold change” value worked out at 0.137.

Turning to RRIRTRPPRLPRPRPRPLDEPRP, the “shrunken log2 fold change” value was 0.23.

For RRIRCRPPRLPRPRPRPQVLPRP, the “shrunken log2 fold change” value was -0.0248.

Regarding RRIRTRPPRLPRPRPRPDQIPRP, the “shrunken log2 fold change” value is -0.0138.

On to RRIRTRPPRLPRPRPRPILEPRP, for which the “shrunken log2 fold change” value was -0.0122.

For RRIRWRPPRLPRPRPRPIWDPRP, the “shrunken log2 fold change” value turned out to be 0.214.

In the case of RRIRGRPPRLPRPRPRPYTVPRP, the “shrunken log2 fold change” value is 0.0498.

For the sequence RRIRSRPPRLPRPRPRPQDNPRP, the “shrunken log2 fold change” value is -0.362.

In the case of RRIRGRPPRLPRPRPRPVEIPRP, the “shrunken log2 fold change” value worked out at 0.177.

Consider RRIRYRPPRLPRPRPRPGLWPRP, for which the “shrunken log2 fold change” value was 0.032.

As to RRIRSRPPRLPRPRPRPNKEPRP, the “shrunken log2 fold change” value stood at 0.0328.

Take RRIRVRPPRLPRPRPRPQHFPRP: the “shrunken log2 fold change” value is 0.0726.

As to RRIRYRPPRLPRPRPRPYMWPRP, the “shrunken log2 fold change” value is -0.43.

Regarding RRIRPRPPRLPRPRPRPYNNPRP, the “shrunken log2 fold change” value was -1.25.

Regarding RRIRPRPPRLPRPRPRPCEYPRP, the “shrunken log2 fold change” value came to 1.65.

For the sequence RRIRVRPPRLPRPRPRPQVYPRP, the “shrunken log2 fold change” value is -0.0131.

Turning to RRIRARPPRLPRPRPRPGAAPRP, the “shrunken log2 fold change” value was determined as 1.1.

Turning to RRIRQRPPRLPRPRPRPCQQPRP, the “shrunken log2 fold change” value is -0.0108.

For the sequence RRIRSRPPRLPRPRPRPRTHPRP, the “shrunken log2 fold change” value stood at 0.181.

For RRIRCRPPRLPRPRPRPVWDPRP, the “shrunken log2 fold change” value is -0.107.

As to RRIRHRPPRLPRPRPRPFAKPRP, the “shrunken log2 fold change” value was -0.362.

Regarding RRIRLRPPRLPRPRPRPDIIPRP, the “shrunken log2 fold change” value was -0.173.

On to RRIRIRPPRLPRPRPRPGRWPRP, for which the “shrunken log2 fold change” value was determined as 0.473.

With RRIRMRPPRLPRPRPRPDYQPRP, the “shrunken log2 fold change” value was -0.304.

RRIRWRPPRLPRPRPRPTARPRP: the “shrunken log2 fold change” value was 0.0278.

On to RRIRERPPRLPRPRPRPLITPRP, for which the “shrunken log2 fold change” value is -0.412.

RRIRTRPPRLPRPRPRPEHRPRP: the “shrunken log2 fold change” value was -0.0227.

Consider RRIRCRPPRLPRPRPRPYPDPRP, for which the “shrunken log2 fold change” value was -0.282.

Take RRIRHRPPRLPRPRPRPRTVPRP: the “shrunken log2 fold change” value is 0.126.

Regarding RRIRWRPPRLPRPRPRPLIRPRP, the “shrunken log2 fold change” value was -0.117.

Consider RRIRARPPRLPRPRPRPQCAPRP, for which the “shrunken log2 fold change” value is 0.216.

As to RRIRFRPPRLPRPRPRPQQKPRP, the “shrunken log2 fold change” value is 0.0925.

Regarding RRIRARPPRLPRPRPRPMAIPRP, the “shrunken log2 fold change” value is -0.0621.

As for RRIRKRPPRLPRPRPRPMCYPRP, the “shrunken log2 fold change” value is -0.00324.

For RRIRARPPRLPRPRPRPGHPPRP, the “shrunken log2 fold change” value was 0.543.

Take RRIRDRPPRLPRPRPRPFTAPRP: the “shrunken log2 fold change” value was -0.128.

Take RRIRCRPPRLPRPRPRPTDAPRP: the “shrunken log2 fold change” value worked out at 0.215.

As for RRIRGRPPRLPRPRPRPDQTPRP, the “shrunken log2 fold change” value stood at 0.0112.

Consider RRIRARPPRLPRPRPRPMTKPRP, for which the “shrunken log2 fold change” value was 0.248.

With RRIRSRPPRLPRPRPRPPDIPRP, the “shrunken log2 fold change” value is -0.283.

RRIRYRPPRLPRPRPRPREQPRP: the “shrunken log2 fold change” value is -0.659.

For RRIRFRPPRLPRPRPRPTGWPRP, the “shrunken log2 fold change” value stood at 0.456.

In the case of RRIRIRPPRLPRPRPRPWADPRP, the “shrunken log2 fold change” value is -0.435.

For RRIRTRPPRLPRPRPRPNCEPRP, the “shrunken log2 fold change” value turned out to be 0.111.

Turning to RRIRMRPPRLPRPRPRPMKCPRP, the “shrunken log2 fold change” value amounted to 0.0208.

As for RRIRTRPPRLPRPRPRPGWIPRP, the “shrunken log2 fold change” value was -0.154.

As to RRIRLRPPRLPRPRPRPVHYPRP, the “shrunken log2 fold change” value was -0.498.

Turning to RRIRIRPPRLPRPRPRPLTNPRP, the “shrunken log2 fold change” value was -0.572.

Turning to RRIRKRPPRLPRPRPRPKPVPRP, the “shrunken log2 fold change” value is 0.39.

Regarding RRIRCRPPRLPRPRPRPTRNPRP, the “shrunken log2 fold change” value was 0.444.

For the sequence RRIRGRPPRLPRPRPRPNVPPRP, the “shrunken log2 fold change” value turned out to be 0.0564.

Turning to RRIRRRPPRLPRPRPRPTILPRP, the “shrunken log2 fold change” value is -0.0149.

Consider RRIRFRPPRLPRPRPRPNNCPRP, for which the “shrunken log2 fold change” value was -0.167.

In the case of RRIRERPPRLPRPRPRPCKSPRP, the “shrunken log2 fold change” value was -0.0225.

For the sequence RRIRQRPPRLPRPRPRPIQEPRP, the “shrunken log2 fold change” value was -0.142.

RRIRVRPPRLPRPRPRPDLGPRP: the “shrunken log2 fold change” value came to 0.155.

Consider RRIRVRPPRLPRPRPRPTKKPRP, for which the “shrunken log2 fold change” value was -0.0633.

As for RRIRLRPPRLPRPRPRPVDAPRP, the “shrunken log2 fold change” value was 0.243.

On to RRIRQRPPRLPRPRPRPYYMPRP, for which the “shrunken log2 fold change” value is -0.614.

Consider RRIRMRPPRLPRPRPRPTHKPRP, for which the “shrunken log2 fold change” value stood at 0.275.

RRIRKRPPRLPRPRPRPMKCPRP: the “shrunken log2 fold change” value stood at 0.0794.

As to RRIRYRPPRLPRPRPRPTFEPRP, the “shrunken log2 fold change” value was -0.274.

On to RRIRFRPPRLPRPRPRPKPYPRP, for which the “shrunken log2 fold change” value was -0.109.

For the sequence RRIRLRPPRLPRPRPRPDKTPRP, the “shrunken log2 fold change” value was -0.146.

For RRIRERPPRLPRPRPRPVIRPRP, the “shrunken log2 fold change” value is -0.305.

Turning to RRIRCRPPRLPRPRPRPHWQPRP, the “shrunken log2 fold change” value is -0.365.

As to RRIRCRPPRLPRPRPRPTAWPRP, the “shrunken log2 fold change” value was 0.79.

As to RRIRERPPRLPRPRPRPWYCPRP, the “shrunken log2 fold change” value worked out at 0.00607.

RRIRPRPPRLPRPRPRPEPTPRP: the “shrunken log2 fold change” value turned out to be 0.416.

With RRIRGRPPRLPRPRPRPCIFPRP, the “shrunken log2 fold change” value worked out at 0.426.

Turning to RRIRSRPPRLPRPRPRPVRHPRP, the “shrunken log2 fold change” value is -0.0103.

Regarding RRIRCRPPRLPRPRPRPFPSPRP, the “shrunken log2 fold change” value turned out to be 0.118.

For the sequence RRIRFRPPRLPRPRPRPNMAPRP, the “shrunken log2 fold change” value is -0.245.

RRIRTRPPRLPRPRPRPWYWPRP: the “shrunken log2 fold change” value was -0.0177.

As for RRIRHRPPRLPRPRPRPMQLPRP, the “shrunken log2 fold change” value is -0.366.

As for RRIRDRPPRLPRPRPRPCGQPRP, the “shrunken log2 fold change” value is -0.0223.

As to RRIRMRPPRLPRPRPRPLEIPRP, the “shrunken log2 fold change” value came to 0.103.

RRIRERPPRLPRPRPRPVDFPRP: the “shrunken log2 fold change” value is -0.0586.

As to RRIRVRPPRLPRPRPRPDIAPRP, the “shrunken log2 fold change” value was -0.211.

As to RRIRFRPPRLPRPRPRPQYDPRP, the “shrunken log2 fold change” value is -0.75.

RRIRDRPPRLPRPRPRPTTRPRP: the “shrunken log2 fold change” value stood at 0.542.

For RRIRNRPPRLPRPRPRPDTPPRP, the “shrunken log2 fold change” value came to 0.0123.

On to RRIRERPPRLPRPRPRPDLFPRP, for which the “shrunken log2 fold change” value is 0.462.

Consider RRIRMRPPRLPRPRPRPYYLPRP, for which the “shrunken log2 fold change” value is -0.326.

Regarding RRIRGRPPRLPRPRPRPYACPRP, the “shrunken log2 fold change” value is -0.00589.

Take RRIRARPPRLPRPRPRPVRIPRP: the “shrunken log2 fold change” value was 0.00598.

Consider RRIRWRPPRLPRPRPRPREKPRP, for which the “shrunken log2 fold change” value is 1.16.

As to RRIRLRPPRLPRPRPRPEASPRP, the “shrunken log2 fold change” value stood at 0.133.

Consider RRIRKRPPRLPRPRPRPGGIPRP, for which the “shrunken log2 fold change” value worked out at 0.569.

With RRIRIRPPRLPRPRPRPYANPRP, the “shrunken log2 fold change” value is -0.0728.

For the sequence RRIRERPPRLPRPRPRPRRHPRP, the “shrunken log2 fold change” value worked out at 0.411.

On to RRIRPRPPRLPRPRPRPGIGPRP, for which the “shrunken log2 fold change” value is 0.208.

As to RRIRWRPPRLPRPRPRPVMVPRP, the “shrunken log2 fold change” value came to 0.0467.

With RRIRCRPPRLPRPRPRPGVPPRP, the “shrunken log2 fold change” value was -0.3.

Regarding RRIRHRPPRLPRPRPRPYIAPRP, the “shrunken log2 fold change” value is -0.496.

For the sequence RRIRWRPPRLPRPRPRPCFAPRP, the “shrunken log2 fold change” value came to 0.263.

In the case of RRIRKRPPRLPRPRPRPLVDPRP, the “shrunken log2 fold change” value was 0.218.
